Test [1] concerns the target CD28-Fc (human) (UniProt P10747). Put plainly: not stated at that place; binding to human CD28 (SPR with CD28-Fc is the only affinity experiment of the filing).
Test [2] concerns the target CD28/GFP fusion protein on transfected HEK293T cells (UniProt P10747). Put plainly: competition: flow cytometry contour plot, CD28/GFP cells co-incubated with B7-2/Cherry cells in the presence of p2TA at 0.3 µg ml-1 (16.0 % without peptide, Fig. 6D). Background: A flow cytometer gives signals particle by particle.
For test [3] the target is unchanged. Put plainly: competition: flow cytometry contour plot, CD28/GFP cells co-incubated with B7-2/Cherry cells in the presence of p2TA at 1 µg ml-1 (16.0 % without peptide, Fig. 6D).
Test [4] has the same target. Kind of test: flow cytometry contour plot, CD28/GFP cells co-incubated with B7-2C/Cherry cells, no peptide (negative control).

From patent US20180215804A1 come the findings set out here.

What is called Kd is the equilibrium constant for the complex coming apart. A higher Kd goes with weaker binding.

Regarding (D-Ala)-p2TA-(D-Ala) (peptide), the Kd in test [1] came out at 2 µM. The percent double labeled cells (upper right quadrant) at 0.3 µg ml-1 p2TA in test [2] is 10.3%. Further, the percent double labeled cells (upper right quadrant) at 1 µg ml-1 p2TA in test [3] was found to be 8.1%.

Turning to “B7-2C/Cherry fusion protein on transfected HEK293T cells (from UniProt P42081 24-329) (ligand)”, in test [4], the percent double labeled cells (upper right quadrant) was found to be 1.5%.
